{
  "source": "paper PMC3468084",
  "key": {"KpDnaB helicase [1]": {"biological_target": "T1, KpDnaB helicase (Klebsiella pneumoniae, UniProt A6TGW0 1-471)", "assay": "EMSA; no flavonol; apparent Kd; 20 mM HEPES pH 7.0, 100 mM NaCl, 25 C, 30 min, 1.7 nM dT30, no Mg2+ or nucleotide stated; native 8% PAGE in TBE at 4 C"}, "KpDnaB helicase [2]": {"biological_target": "T1, KpDnaB helicase", "assay": "EMSA; 16.7 uM kaempferol; apparent Kd; 20 mM HEPES pH 7.0, 100 mM NaCl, 25 C, 30 min, 1.7 nM dT30, no Mg2+ or nucleotide stated; native 8% PAGE in TBE at 4 C"}, "KpDnaB helicase [3]": {"biological_target": "T1, KpDnaB helicase", "assay": "EMSA; 16.7 uM galangin; apparent Kd; 20 mM HEPES pH 7.0, 100 mM NaCl, 25 C, 30 min, 1.7 nM dT30, no Mg2+ or nucleotide stated; native 8% PAGE in TBE at 4 C"}, "KpDnaB helicase [4]": {"biological_target": "T1, KpDnaB helicase", "assay": "EMSA; 16.7 uM myricetin; apparent Kd; 20 mM HEPES pH 7.0, 100 mM NaCl, 25 C, 30 min, 1.7 nM dT30, no Mg2+ or nucleotide stated; native 8% PAGE in TBE at 4 C"}, "KpDnaB helicase [5]": {"biological_target": "T1, KpDnaB helicase", "assay": "EMSA; 16.7 uM quercetin; apparent Kd; 20 mM HEPES pH 7.0, 100 mM NaCl, 25 C, 30 min, 1.7 nM dT30, no Mg2+ or nucleotide stated; native 8% PAGE in TBE at 4 C"}},
  "data": [
    {"binder": "TTTTTTTTTTTTTTTTTTTTTTTTTTTTTT (ssDNA)", "note": "[dT30]", "values": [
      {"measurement": "Kd", "setting": "KpDnaB helicase [1]", "result": "0.97 ± 0.07", "unit": "µM"},
      {"measurement": "Kd", "setting": "KpDnaB helicase [2]", "result": "1.1 ± 0.05", "unit": "µM"},
      {"measurement": "Kd", "setting": "KpDnaB helicase [3]", "result": "1.03 ± 0.06", "unit": "µM"},
      {"measurement": "Kd", "setting": "KpDnaB helicase [4]", "result": "1.11 ± 0.05", "unit": "µM"},
      {"measurement": "Kd", "setting": "KpDnaB helicase [5]", "result": "1.03 ± 0.07", "unit": "µM"}
    ]}
  ]
}
